Publication PMC3197598, “Preventing Staphylococcus aureus Sepsis through the Inhibition of Its Agglutination in Blood” (PLoS Pathogens, 2011)

Molecular target: T1, human fibrinogen (human, UniProt P02671-2 20-644; P02675 31-491; P02679-2 27-437)
T1 construct: fibrinogen A-alpha chain, human; fibrinogen B-beta chain, human; fibrinogen gamma chain, human; Coated on MaxSorb ELISA plates; also called Fbgn; source: bought: Sigma; copies: 2 + 2 + 2
T1 sequence (looked up) 1: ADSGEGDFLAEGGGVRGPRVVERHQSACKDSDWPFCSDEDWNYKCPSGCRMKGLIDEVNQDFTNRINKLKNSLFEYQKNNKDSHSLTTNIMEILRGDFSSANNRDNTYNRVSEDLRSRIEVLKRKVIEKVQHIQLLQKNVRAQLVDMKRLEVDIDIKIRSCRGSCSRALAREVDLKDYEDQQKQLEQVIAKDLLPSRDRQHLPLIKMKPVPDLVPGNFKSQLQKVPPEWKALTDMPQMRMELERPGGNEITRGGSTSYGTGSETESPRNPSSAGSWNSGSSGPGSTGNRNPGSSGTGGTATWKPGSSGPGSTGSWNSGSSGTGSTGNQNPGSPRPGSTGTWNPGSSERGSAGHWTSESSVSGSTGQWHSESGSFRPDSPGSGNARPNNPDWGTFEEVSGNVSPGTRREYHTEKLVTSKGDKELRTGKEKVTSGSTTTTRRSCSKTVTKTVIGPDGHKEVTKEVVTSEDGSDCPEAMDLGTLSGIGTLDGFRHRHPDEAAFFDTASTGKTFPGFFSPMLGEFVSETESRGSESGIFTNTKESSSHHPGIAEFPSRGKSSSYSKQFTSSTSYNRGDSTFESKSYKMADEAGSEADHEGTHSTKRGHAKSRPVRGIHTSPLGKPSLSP
T1 sequence (looked up) 2: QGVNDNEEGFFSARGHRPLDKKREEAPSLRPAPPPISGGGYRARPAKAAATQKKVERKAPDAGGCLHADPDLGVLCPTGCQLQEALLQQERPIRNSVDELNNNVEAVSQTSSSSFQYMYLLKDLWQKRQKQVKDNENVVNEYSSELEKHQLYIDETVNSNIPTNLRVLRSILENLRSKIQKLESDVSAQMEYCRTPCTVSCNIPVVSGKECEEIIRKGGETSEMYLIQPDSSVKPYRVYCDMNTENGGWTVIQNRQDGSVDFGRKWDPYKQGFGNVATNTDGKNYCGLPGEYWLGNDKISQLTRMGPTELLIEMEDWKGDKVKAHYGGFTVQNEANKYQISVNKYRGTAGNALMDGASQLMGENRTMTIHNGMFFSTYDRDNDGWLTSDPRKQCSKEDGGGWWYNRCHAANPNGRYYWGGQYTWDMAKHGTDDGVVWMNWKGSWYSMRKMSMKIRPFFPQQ
T1 sequence (looked up) 3: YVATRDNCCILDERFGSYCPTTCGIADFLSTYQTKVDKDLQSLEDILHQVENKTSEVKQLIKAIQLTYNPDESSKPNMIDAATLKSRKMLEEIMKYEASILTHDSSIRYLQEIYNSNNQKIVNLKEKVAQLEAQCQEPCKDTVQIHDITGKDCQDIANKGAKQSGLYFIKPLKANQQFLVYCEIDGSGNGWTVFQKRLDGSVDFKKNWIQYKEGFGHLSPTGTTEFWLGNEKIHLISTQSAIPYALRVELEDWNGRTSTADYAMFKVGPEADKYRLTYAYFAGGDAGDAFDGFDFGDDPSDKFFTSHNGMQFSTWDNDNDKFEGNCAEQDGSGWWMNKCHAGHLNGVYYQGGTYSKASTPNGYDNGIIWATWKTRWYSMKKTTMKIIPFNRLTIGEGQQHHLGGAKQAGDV
Test: ELISA; human fibrinogen coated overnight on MaxSorb 96-well plates, wells treated with PBS (fibrinogen) or 100 nM alpha-thrombin in 1% sodium-citrate/PBS for one hour at room temperature (fibrin); ClfA in 1% sodium-citrate added at increasing concentrations for one hour; bound ClfA detected with polyclonal anti-ClfA and anti-rabbit-HRP; non-linear regression, one-site saturation
Conditions: both partners purified

B1: clumping factor A (ClfA), purified recombinant (natural protein)
chain: not shown
notes: clumping factor A (ClfA) of Staphylococcus aureus; strain Newman is the strain worked with; it would add an N-terminal His tag (surmised); also called His6-ClfA; source: E. coli BL21(DE3), purified (Ni-NTA)
  Kd: 395 ± 51.8 nM
